The target of test [1] is T1, human sex hormone-binding globulin (SHBG) (human, UniProt P04278 30-402, O-linked glycan at T36 (native glycosylated form)).
T1 construct: Purified human SHBG, the SHBG antigen of the SPR runs, or SHBG in human serum; also called SHBG protein
T1 sequence: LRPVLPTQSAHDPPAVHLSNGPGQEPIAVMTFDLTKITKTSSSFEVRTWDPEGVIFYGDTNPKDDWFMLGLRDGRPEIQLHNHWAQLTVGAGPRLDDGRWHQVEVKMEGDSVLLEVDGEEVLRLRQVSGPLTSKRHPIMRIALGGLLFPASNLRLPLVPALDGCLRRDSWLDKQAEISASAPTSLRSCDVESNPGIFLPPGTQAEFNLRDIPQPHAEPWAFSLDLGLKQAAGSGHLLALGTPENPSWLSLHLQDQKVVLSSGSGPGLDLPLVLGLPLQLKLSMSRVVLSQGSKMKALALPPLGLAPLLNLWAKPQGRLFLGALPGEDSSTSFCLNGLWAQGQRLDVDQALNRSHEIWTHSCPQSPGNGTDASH
Put plainly: SPR (Biacore T100), mAb captured on anti-mouse IgG, SHBG antigen injected, 1:1 fit, assay 2. As for the experimental part: (§1) Surface plasmon resonance experiments were performed on a BiacoreT100 to characterize the anti-SHBG and anti-IBP4 antibodies. Anti-mouse-IgG antibody was amine coupled to ˜500 RU on a C1 sensor chip using standard NHS/EDC activation. Test monoclonal antibodies were captured on the anti-mouse-IgG surfaces. The binding for the Sex Hormone Binding Globulin Antigen to anti-SHBG variant antibodies 4G10.F8 and 13C9.E5 were measured in a multi-cycle kinetic mode. Binding studies were performed in PBS buffer+0.05% P20+3 mM EDTA at 25 degrees C. SHBG was captured for 1 minute at 200 nM and regenerated with 1/100 H3PO4 after each cycle. SHBG was captured to similar densities on 2 different flow cells followed by an injection of the SHBG antigen in a 3-fold titration series up to 600 nM over the two surfaces. The responses were processed by subtracting the buffer injection to correct for drift. The data sets fit well to a simple 1:1 interaction model using SCRUBBER (Biologic Software Pty Ltd). The antigen concentration series was tested three times over each surface, giving rise to the kinetic an affinity parameters summarized below.

Test [2] addresses T1, human sex hormone-binding globulin …. Kind of test: SPR (Biacore T100), mAb captured on anti-mouse IgG, SHBG antigen injected, average of 3 assays. As for the experimental part:
as §1
For orientation: Surface plasmon resonance follows binding to a sensor surface in real time, without labels.

For test [3] the target is unchanged. Put plainly: SPR (Biacore T100), mAb captured on anti-mouse IgG, SHBG antigen injected, 1:1 fit, assay 1. The procedure:
as §1

For test [4] the target is unchanged. Kind of test: Biacore, hybridoma supernatant.
Test [5] has the same target. Kind of test: SPR (Biacore T100), mAb captured on anti-mouse IgG, SHBG antigen injected, 1:1 fit, assay 3; assay 3. As for the experimental part:
as §1

The target is the same in test [6]. Kind of test: SPR (Biacore T100), mAb captured on anti-mouse IgG, SHBG antigen injected, 1:1 fit, assay 3. The procedure: as §1
Test [7] deals with T2, C-terminal IBP4 fragment (amino acids 157-258) (human, UniProt P22692 157-258).
T2 construct: also called CT-IBP4; C-term IBP4
T2 sequence: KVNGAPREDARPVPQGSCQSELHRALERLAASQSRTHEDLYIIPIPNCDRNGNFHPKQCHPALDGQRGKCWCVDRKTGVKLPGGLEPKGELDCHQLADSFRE
Kind of test: SPR (Biacore T100), mAb amine-coupled to C1 chip, CT-IBP4 injected, 1:1 fit, first surface assay 3. The procedure: (§2) For this reason, anti-IBP4 antibodies were directly amine coupled using standard NHS/EDC coupling to a C1 sensor chip. Variant 5B3.G9 was coupled on two surfaces at 350 RU and the other at 150 RU. […] Antibodies were measured in a multi-cycle kinetic mode. Binding studies were performed in PBS buffer+0.05% P20+3 mM EDTA at 25 degrees C. CT-IBP4 was tested in a 3-fold concentration series up to 333 nM and injected at 100 uL/min for 3 minutes followed by a 10 minute dissociation phase. Surfaces were regenerated with 1/100 H3PO4 after each cycle. The antigen binding responses were processed by subtracting the signal from a reference surface with no antibody captured along with a buffer injection. The processed response data were globally fit to a simple 1:1 interaction using SCRUBBER (Biologic Software Pty Ltd). The antigen concentration series was tested three times over each surface, giving rise to the kinetic an affinity parameters summarized in the tables below.

The target of test [8] is T2, C-terminal IBP4 fragment (amino acids …). Kind of test: SPR (Biacore T100), mAb amine-coupled to C1 chip, CT-IBP4 injected, 1:1 fit, first surface assay 1. The procedure: as §2
For test [9] the target is unchanged. Put plainly: SPR (Biacore T100), mAb amine-coupled to C1 chip, CT-IBP4 injected, 1:1 fit, first surface assay 2. The procedure: as §2
For test [10] the target is unchanged. Kind of test: SPR (Biacore T100), mAb amine-coupled to C1 chip, CT-IBP4 injected, average. As for the experimental part:
as §2

For test [11] the target is unchanged. Put plainly: SPR (Biacore T100), mAb amine-coupled to C1 chip, CT-IBP4 injected, 1:1 fit, second surface assay 3. The procedure:
as §2

For test [12] the target is unchanged. Put plainly: SPR (Biacore T100), mAb amine-coupled to C1 chip, CT-IBP4 injected, 1:1 fit, second surface assay 2. The procedure:
as §2

Test [13] has the same target. Put plainly: SPR (Biacore T100), mAb amine-coupled to C1 chip, CT-IBP4 injected, 1:1 fit, second surface assay 1. The procedure:
as §2

Test [14] shares this target. Kind of test: SPR (Biacore T100), mAb amine-coupled to C1 chip, CT-IBP4 injected, 1:1 fit, assay 2. As for the experimental part:
as §2

The target is the same in test [15]. Put plainly: SPR (Biacore T100), mAb amine-coupled to C1 chip, CT-IBP4 injected, 1:1 fit, assay 3. The procedure: as §2
Test [16] has the same target. Kind of test: SPR (Biacore T100), mAb amine-coupled to C1 chip, CT-IBP4 injected, 1:1 fit, assay 1. The procedure:
as §2

For 3 molecules, Kd, koff and kon results are on record in patent US20250101096A1 (SERA PROGNOSTICS, published 2025).

B1: anti-SHBG antibody clone variant 4G10.F8 (antibody, mouse IgG2a, kappa)
heavy: QVQLQQPGAELVKPGASVKMSCKASGYTFTGYWMHWVKQRPGQGLEWIGVIDPSTGYTTYNEKFKGKATLTVDTSSNTAYMQLSSLTSEDSAVYYCTREPLVTADFEYWGQGTTLTVSSAKTTAPSVYPLAPVCGDTTGSSVTLGCLVKGYFPEPVTLTWNSGSLSSGVHTFPAVLQSDLYTLSSSVTVTSSTWPSQSITCNVAHPASSTKVDKKIEPRGPTIKPCPPCKCPAPNLLGGPSVFIFPPKIKDVLMISLSPIVTCVVVDVSEDDPDVQISWFVNNVEVHTAQTQTHREDYNSTLRVVSALPIQHQDWMSGKEFKCKVNNKDLPAPIERTISKPKGSVRAPQVYVLPPPEEEMTKKQVTLTCMVTDFMPEDIYVEWTNNGKTELNYKNTEPVLDSDGSYFMYSKLRVEKKNWVERNSYSCSVVHEGLHNHHTTKSFSRTPG
light: DIVMTQSQKFMSTSVGDRISVTCKASQNVDTNVAWYRQKPGQSPKALIYSASYRFSGVPDRFTGSGSGTDFTLTISTFQSEDLAEYFCQQYDSYPYTFGGGTKLEIKRADAAPTVSIFPPSSEQLTSGGASVVCFLNNFYPKDINVKWKIDGSERQNGVLNSWTDQDSKDSTYSMSSTLTLTKDEYERHNSYTCEATHKTSTSPIVKSFNRNEC
notes: Mouse monoclonal; variant form expressed from a standard backbone in CHO cells; also called SHBG (4G10.F8) Anti SHBG v1; SHBG #6
What is called Kd is a measure of binding affinity in units of concentration. A word on the koff: it is the rate constant with which the complex falls apart. A lower koff goes with a long-lived complex. By kon is commonly meant the second-order rate constant of association. As for B1, the equilibrium dissociation constant (Kd) in [1] is 1.91 nM; in test [2], 2 nM; in test [3] it was 1.05 nM; in [4] it was 0.95 nM; in test [6] it was 3.66 nM. For the same molecule, the koff in test [1] turned out to be 8.37e-05 s⁻¹; in test [2] it was 9e-05 s⁻¹; in [3], 4.57e-05 s⁻¹; in [4] it was 6.2e-05 s⁻¹; in [5], 0.000145 s⁻¹. Moreover, the kon in [1] came to 43900 M⁻¹ s⁻¹; in test [2], 42000 M⁻¹ s⁻¹; in test [3], 43700 M⁻¹ s⁻¹; in [4] it was 65000 M⁻¹ s⁻¹; in [6], 39600 M⁻¹ s⁻¹.

B2: anti-IBP4 antibody clone variant 5B3.G9 (antibody, mouse IgG1, kappa)
heavy: EVQLQQSGPELVKPGASAKISCKASGYTFTDYYMNWVKQSHGKSLEWIGDINPNNGGSAYNQKFKGKATLTVDKSSSTAYMELRSLTSEDSAVYYCARWDGGFDYWGQGTTLTVSSAKTTPPSVYPLAPGSAAQTNSMVTLGCLVKGYFPEPVTVTWNSGSLSSGVHTFPAVLQSDLYTLSSSVTVPSSTWPSQTVTCNVAHPASSTKVDKKIVPRDCGCKPCICTVPEVSSVFIFPPKPKDVLTITLTPKVTCVVVDISKDDPEVQFSWFVDDVEVHTAQTKPREEQINSTFRSVSELPIMHQDWLNGKEFKCRVNSAAFPAPIEKTISKTKGRPKAPQVYTIPPPKEQMAKDKVSLTCMITNFFPEDITVEWQWNGQPAENYKNTQPIMDTDGSYFVYSKLNVQKSNWEAGNTFTCSVLHEGLHNHHTEKSLSHSPG
light: DIVMTQSQKFMSTSVRDRVSVTCKASQNVGTNVAWYQQKPGQSPKALIYSASYRYSGVPDRFTGSGSGTAFTLTISNVQSEDLAEYFCQQYNIYPLTFGAGTKLELKRADAAPTVSIFPPSSEQLTSGGASVVCFLNNFYPKDINVKWKIDGSERQNGVLNSWTDQDSKDSTYSMSSTLTLTKDEYERHNSYTCEATHKTSTSPIVKSFNRNEC
notes: Mouse monoclonal; variant form expressed in CHO cells; also called IBP4 (5B3.G9) V1; IBP4-5B3.G9
B2: the Kd in test [7] was 43.1 nM; in test [8], 38.2 nM; in [9] it was 37 nM; in [10], 31 nM; in test [11] it was 22.3 nM; in test [12] it was 17.1 nM. The Kd in test [13] stood at 25.8 nM. Moreover, the koff in [7] was determined as 0.00466 s⁻¹; in [8], 0.00447 s⁻¹; in test [9], 0.00419 s⁻¹; in test [10] it was 0.0041 s⁻¹; in test [11] it was 0.00392 s⁻¹; in test [12], 0.0035 s⁻¹. For the same molecule, the koff in [13] is 0.00404 s⁻¹. Moreover, the kon in test [7] amounted to 108000 M⁻¹ s⁻¹; in test [8], 117000 M⁻¹ s⁻¹; in test [9], 113000 M⁻¹ s⁻¹; in test [10], 150000 M⁻¹ s⁻¹; in test [11] it was 176000 M⁻¹ s⁻¹; in [12] it was 204000 M⁻¹ s⁻¹. For the same molecule, in [13], the kon worked out at 157000 M⁻¹ s⁻¹.

B3: anti-IBP4 antibody clone variant 7D6.G4 (antibody, mouse IgG1, kappa, V domains shown)
VH: EVQLQQSGPELVKPGASVKISCKASGYTFTDYYMNWVKQSHGKSLEWIGDINPNNGGSAYNQKFKGKATLTVDKSSSTAYMELRSLTSEDSAVYYCARWDGGFDYWGQGTTLTVSS
VL: DIVMTQSQKFMSTSVRDRVSVTCKASQNVGTNVAWYQQKPGQSPKALIYSASYRYSGVPDRFTGSGSGTDFTLTISNVQSEDLAEYFCQQYNSYPLTFGAGTKLELKR
notes: Mouse monoclonal; variant form; also called IBP4 (7D6.G4) V2; IBP4-7D6.G4
In the case of B3, the dissociation constant (Kd) in test [14] turned out to be 56.1 nM; in [15], 75.9 nM; in test [16], 96.2 nM; in test [10], 76 nM. Further, the koff in test [14] was determined as 0.0119 s⁻¹; in test [15], 0.0128 s⁻¹; in test [16], 0.0146 s⁻¹; in test [10] it was 0.013 s⁻¹. The kon in test [14] was determined as 211000 M⁻¹ s⁻¹; in test [15] it was 168000 M⁻¹ s⁻¹; in [16], 152000 M⁻¹ s⁻¹; in test [10] it was 180000 M⁻¹ s⁻¹.
